Consider 5 molecules from patent publication US12077763B2, “RNA-based control of powdery mildew” (Greenlight Biosciences, Inc., priority 2021, dated 2024).

The labels stand for the following.
B1: GS3466 (nucleic acid)
sense: CACGAAUACGUGUAAUUCCUUCUCUCAUGAUACUUUCUCGUUUCUCACAUUGCUUUUUGAAUUUAGAAAAUGCUAGCGUUUCUAAAUCUUUUUGUUGAGCUUUUAAAUCGUUGAUCAUGGCCAUUUGCUCGUCAAUUUUUACUAAAAAGUCCUUGACAUGCCUAUUUACAUUGAAUACGUUUCUGGUAACCUUGGUUUGAAUAUUUUUUGCUCGAUUUGCAUAACGCAAUGUAUUCUGAGUCUCAUCAAAAUGUGCACUAGACGGACUUACGCAAACAAUCAUUACGGUCUUGCAAUUGCCACCGAGAGAAAACUUUAGCAGUCGAGUUAACUUUGAAUUCCGAUAUGGAACGUGGUUUUUUUUUCGGGGAUCACAAA
antisense: UUUGUGAUCCCCGAAAAAAAAACCACGUUCCAUAUCGGAAUUCAAAGUUAACUCGACUGCUAAAGUUUUCUCUCGGUGGCAAUUGCAAGACCGUAAUGAUUGUUUGCGUAAGUCCGUCUAGUGCACAUUUUGAUGAGACUCAGAAUACAUUGCGUUAUGCAAAUCGAGCAAAAAAUAUUCAAACCAAGGUUACCAGAAACGUAUUCAAUGUAAAUAGGCAUGUCAAGGACUUUUUAGUAAAAAUUGACGAGCAAAUGGCCAUGAUCAACGAUUUAAAAGCUCAACAAAAAGAUUUAGAAACGCUAGCAUUUUCUAAAUUCAAAAAGCAAUGUGAGAAACGAGAAAGUAUCAUGAGAGAAGGAAUUACACGUAUUCGUG
B2: GS3454 (nucleic acid)
sense: GCUCUUCUCAAUGGAUCCCAAGAUGAUCUAAAUAGAAUCGCAGAACACUUUAAGUUGACAAAGUUGAAAGAGCUCUAUGAAAAACAAUGUCAAGUUUUAAAAAGAUUUGAUAGACCCAAUCCUUCUGUUCCAAUAGCCAUAGCACAUUUAUAUCCUCCAGGCCCUAUAAAUCCACAUUACUCAGCAGCUAUGGCACGAGAAGCUGAGAAAAAAAAUUCAAACCCUCUUAAAAACACUGCAACACAAACUAGUUCUAAGGAGGUUGGCUUAAGUACCAUUAGUAAUAAAAAUUCUCUUAUAAAUUCGAGGCGCUCAAAAGGACAAGAUAUGCCAACUCAGGCUAGCAGUUUGGCAGAAAAAUUUAGUCAAAGUAUGAUGGAUCAGGAGCUUGAUGAUGA
antisense: UCAUCAUCAAGCUCCUGAUCCAUCAUACUUUGACUAAAUUUUUCUGCCAAACUGCUAGCCUGAGUUGGCAUAUCUUGUCCUUUUGAGCGCCUCGAAUUUAUAAGAGAAUUUUUAUUACUAAUGGUACUUAAGCCAACCUCCUUAGAACUAGUUUGUGUUGCAGUGUUUUUAAGAGGGUUUGAAUUUUUUUUCUCAGCUUCUCGUGCCAUAGCUGCUGAGUAAUGUGGAUUUAUAGGGCCUGGAGGAUAUAAAUGUGCUAUGGCUAUUGGAACAGAAGGAUUGGGUCUAUCAAAUCUUUUUAAAACUUGACAUUGUUUUUCAUAGAGCUCUUUCAACUUUGUCAACUUAAAGUGUUCUGCGAUUCUAUUUAGAUCAUCUUGGGAUCCAUUGAGAAGAGC
B3: GS3457 (nucleic acid)
sense: UCAGGCAAGGGUGGAGUGGGUAAAAGUACAUUUACAACACUGCUUGCACAUGCACUUGCAAAAGACCCGGAAAUUGUGGUUGGUGUCAUGGAUACAGAUAUUUGCGGGCCAAGUAUUCCAAAAAUGAUGGGAGUUGAGGAAGAGAUUAUUCACGUCAGUAAUACAGGAUGGAGUCCAGUUUGGGUACUUGAAAAUCUAGCAGUAAUGAGCGUGCAAUUUAUGCUUCCCAACCGAGAUGAUGCAGUUAUUUGGAGAGGACCAAAGAAAAACGGCCUGAUAAAGCAAUUUUUAAAAGAUGUAGAAUGGGGCGAAAUGGAAUAUUUAUUAGUAGACACUCCACCAGGAACAAGUGAUGAACAUUUGAGUGUCAACACUUUUUUGAAAGAGAGUGGAA
antisense: UUCCACUCUCUUUCAAAAAAGUGUUGACACUCAAAUGUUCAUCACUUGUUCCUGGUGGAGUGUCUACUAAUAAAUAUUCCAUUUCGCCCCAUUCUACAUCUUUUAAAAAUUGCUUUAUCAGGCCGUUUUUCUUUGGUCCUCUCCAAAUAACUGCAUCAUCUCGGUUGGGAAGCAUAAAUUGCACGCUCAUUACUGCUAGAUUUUCAAGUACCCAAACUGGACUCCAUCCUGUAUUACUGACGUGAAUAAUCUCUUCCUCAACUCCCAUCAUUUUUGGAAUACUUGGCCCGCAAAUAUCUGUAUCCAUGACACCAACCACAAUUUCCGGGUCUUUUGCAAGUGCAUGUGCAAGCAGUGUUGUAAAUGUACUUUUACCCACUCCACCCUUGCCUGA
B4: GS1806: dsRNA trigger SEQ ID NO 181; gene target Serine/threonine-protein kinase SCH9 (nucleic acid)
DNA: GACCAACCACAGCACATTTCAAAGACAAGTACGCCTAATGACCAAAAGTCAACCATCTTAGTATATCCTGTTTCATCTAGGAGAACCTCAGGAGCAAGGTATTCCGTGGTACCACAGAATGTATTTGTCGTCTCATTTTTGGTCAAGTTAGCTTTTGAAAGACCAAAATCACATAAAGCGATATGTCCATTAGCATCGAGCAGAATGTTTTCAGGTTTTAGATCGCGATAAACGATGTCATGTTTGTGAAGGTGCTGGAGAGCCAAAATGAGCTCAGCTATGTAAAATTTTGCTCGCTCTTCACAGAACCTTCCTTCTCTTTGTAAATGCCAAAAAAGTTCGCCTCCAGACATATAATCAGTTACCAAATAGAGATCACTTGGAGTTTGGAATGAAAATTTAAGTCCAACAATGAACTGCGACTCTGCCATAGCTGTTCTGACTAAGATATTTCTTTCGCCAACAGTATGGGCGACCTCTTTCTTTTGTACAATAACCTTTTTCTGAAGGACTTTCATGGCATAAATTCTTCCTGTATCTTTTTTCCTGACTTGATAAACTTGACCAAAAGTTCCTTTTCCTATCAGTTTCAAGAATT
B5: GS1800: dsRNA trigger SEQ ID NO 137; gene target Protein BOB1 (nucleic acid)
DNA: ATCAGTCTGACTGCTATACTCACTACCAGAGTCACTGATTACCTGTCTGTCTCTATCGACAATTCCATGAGGTGATTTTAAATGAGTGATATGTTCGTCAATGACACTTAGAGTTTCATTCATTACAGGGCTATCTTGACGATGATTCTTAATATTAACAGACGAGATACTTTTTGATTGAATCGTTGTTTCAGGACTAGTAATCGTTAAGTTTGACGGAGCCTTGATACCCCGGGGCCCAAGAGTTGGTTGTATTTGAGGAGTATCTAACATTTTGAGAGGTTCTGATGGCAAGGAGACCGTATTTTCACCAGAAAAAGGAGTTTGTGGAGAAACTGTGTTGCTAGTTTTCCTTATTTTGGAATGGGAATTTTGAATGGACGATGATGCTGGCGAGCATATTAAAGATCCTCGGGGAGCTATACGTGTGTATACTTCTGGGAAGAGGCCACTCTTTCCATTTAGCAGATGACGGCCTAAAAACCATCCGTCCCCAAAATCATCATCACGTTCTATCAACTCAACGCGATCTCCTTTGGACAAGCTCAACTCATCTGAGCTACGAGCTGAGAAATCATGAACTACAAGCAAAATATGA

One data set has as its system E. necator. The data set can be described thus: Leaf disc assay, dry inoculum (settling tower), decrease in disease severity / hyphal growth (Example 2). The following applies: decrease in disease severity (hyphal growth) relative to untreated control; time point 1 (untreated control hyphal growth ≥50%); value ± SE.
Turning to B1, the “% decrease =/− SE TP1” value was determined as 21 ± 7%.

As to B2, the “% decrease =/− SE TP1” value was 4 ± 4%.

In the case of B3, the “% decrease =/− SE TP1” value is 13 ± 4%.

With B4, the “% decrease =/− SE TP1” value is 34 ± 7%.

On to B5, for which the “% decrease =/− SE TP1” value is reported as 22 ± 6%.

The same data set, now with this note: decrease in disease severity (hyphal growth) relative to untreated control; time point 2; value ± SE.
Take B1: the “% decrease =/− SE TP2” value is listed as 19 ± 11%.

For the molecule B2, the “% decrease =/− SE TP2” value is 0 ± 9%.

With B4, the “% decrease =/− SE TP2” value came to 21 ± 7%.

With B5, the “% decrease =/− SE TP2” value came to 25 ± 8%.
